Measurements as given in patent US6395548.

Target: EPAS1 (HIF-2alpha) (Homo sapiens) (UniProt Q99814)
Assay: cell_activity
Conditions: luciferase reporter, 6 ug plasmid, BAEC; direct binding not shown

Sequence of EPAS1 (HIF-2alpha) (Homo sapiens) (Q99814 whole entry): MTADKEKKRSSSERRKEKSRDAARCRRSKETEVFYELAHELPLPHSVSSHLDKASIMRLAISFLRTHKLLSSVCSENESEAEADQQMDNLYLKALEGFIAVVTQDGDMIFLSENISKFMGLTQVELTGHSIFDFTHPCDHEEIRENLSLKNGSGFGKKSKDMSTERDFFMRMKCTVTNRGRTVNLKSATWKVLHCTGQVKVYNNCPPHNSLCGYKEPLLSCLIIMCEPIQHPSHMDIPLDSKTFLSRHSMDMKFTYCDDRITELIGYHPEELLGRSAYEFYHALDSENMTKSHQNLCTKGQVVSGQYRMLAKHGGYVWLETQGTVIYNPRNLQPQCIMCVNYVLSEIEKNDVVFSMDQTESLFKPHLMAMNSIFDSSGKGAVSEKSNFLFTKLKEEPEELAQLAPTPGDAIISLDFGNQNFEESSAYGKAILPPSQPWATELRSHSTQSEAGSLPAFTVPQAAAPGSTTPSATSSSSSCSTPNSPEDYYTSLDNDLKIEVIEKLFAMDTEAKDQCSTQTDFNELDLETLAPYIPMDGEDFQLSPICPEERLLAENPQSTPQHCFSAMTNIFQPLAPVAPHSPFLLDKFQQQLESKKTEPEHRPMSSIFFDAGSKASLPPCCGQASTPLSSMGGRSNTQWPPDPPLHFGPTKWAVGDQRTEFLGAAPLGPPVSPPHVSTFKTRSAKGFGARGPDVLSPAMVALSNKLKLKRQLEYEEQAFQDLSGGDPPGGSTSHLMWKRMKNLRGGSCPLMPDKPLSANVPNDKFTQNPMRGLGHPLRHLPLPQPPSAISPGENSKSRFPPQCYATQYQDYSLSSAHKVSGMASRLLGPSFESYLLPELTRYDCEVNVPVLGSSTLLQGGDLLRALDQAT

Question: Which activity does the source give for KDR/flk-1 promoter -4 kb to +296 here?
Answer: The activity was 12.9 fold.
